The record followed here is PMC8080076.

A value given as a limit tells only on which side of the number the result lay.

This assay deals with DEC205 (human (endogenous in blood DCs)) (UniProt O60449). Kind of assay: flow cytometry on cells. In general terms: Flow cytometry measures light scatter and fluorescence of single cells or particles in a stream.
Sequence of UniProt O60449 (O60449 28-1722): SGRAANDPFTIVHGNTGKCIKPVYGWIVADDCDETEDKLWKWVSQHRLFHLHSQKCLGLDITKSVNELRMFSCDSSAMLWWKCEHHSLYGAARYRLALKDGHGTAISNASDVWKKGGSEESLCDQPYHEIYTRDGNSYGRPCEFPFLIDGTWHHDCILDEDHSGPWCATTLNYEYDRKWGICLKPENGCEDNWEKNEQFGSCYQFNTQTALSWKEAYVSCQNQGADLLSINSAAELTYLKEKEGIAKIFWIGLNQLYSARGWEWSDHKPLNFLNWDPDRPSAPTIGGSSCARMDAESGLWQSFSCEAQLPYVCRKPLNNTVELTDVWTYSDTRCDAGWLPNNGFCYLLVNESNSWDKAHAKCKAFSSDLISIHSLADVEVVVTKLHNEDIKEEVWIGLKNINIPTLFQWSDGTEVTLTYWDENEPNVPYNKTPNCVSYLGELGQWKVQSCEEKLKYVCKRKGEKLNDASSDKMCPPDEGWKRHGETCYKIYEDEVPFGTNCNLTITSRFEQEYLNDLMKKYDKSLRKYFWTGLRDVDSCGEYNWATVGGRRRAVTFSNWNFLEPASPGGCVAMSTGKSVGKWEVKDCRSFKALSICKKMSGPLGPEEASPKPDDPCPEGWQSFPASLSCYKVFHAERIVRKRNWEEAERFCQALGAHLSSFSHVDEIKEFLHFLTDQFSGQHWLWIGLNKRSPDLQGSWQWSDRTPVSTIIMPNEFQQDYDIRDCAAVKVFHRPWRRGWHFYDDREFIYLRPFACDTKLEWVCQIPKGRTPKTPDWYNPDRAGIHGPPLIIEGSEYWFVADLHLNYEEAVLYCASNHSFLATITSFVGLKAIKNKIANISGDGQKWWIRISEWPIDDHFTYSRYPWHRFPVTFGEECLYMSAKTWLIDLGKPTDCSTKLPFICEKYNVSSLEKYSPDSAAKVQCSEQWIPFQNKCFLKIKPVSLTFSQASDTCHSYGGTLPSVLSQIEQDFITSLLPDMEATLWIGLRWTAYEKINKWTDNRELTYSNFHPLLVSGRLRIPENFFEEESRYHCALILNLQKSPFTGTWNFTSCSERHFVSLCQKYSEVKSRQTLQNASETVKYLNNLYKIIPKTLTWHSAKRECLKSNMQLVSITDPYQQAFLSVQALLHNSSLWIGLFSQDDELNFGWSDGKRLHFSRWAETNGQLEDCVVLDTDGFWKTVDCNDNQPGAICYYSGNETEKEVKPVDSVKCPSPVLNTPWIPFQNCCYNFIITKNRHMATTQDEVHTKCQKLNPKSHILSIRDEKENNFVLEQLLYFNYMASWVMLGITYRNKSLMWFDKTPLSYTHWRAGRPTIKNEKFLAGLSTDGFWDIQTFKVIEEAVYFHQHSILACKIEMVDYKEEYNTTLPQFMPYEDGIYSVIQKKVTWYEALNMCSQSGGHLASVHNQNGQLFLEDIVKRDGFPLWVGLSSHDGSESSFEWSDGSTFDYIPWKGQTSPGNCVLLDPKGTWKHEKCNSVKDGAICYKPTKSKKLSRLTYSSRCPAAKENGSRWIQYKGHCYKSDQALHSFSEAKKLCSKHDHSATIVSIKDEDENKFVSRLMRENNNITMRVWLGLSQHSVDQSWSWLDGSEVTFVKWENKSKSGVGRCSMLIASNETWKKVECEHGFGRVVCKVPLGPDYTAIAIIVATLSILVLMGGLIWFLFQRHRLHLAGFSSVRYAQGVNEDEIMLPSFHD

Take “FITC-labeled HDM-derived PDI, recombinant (enzyme)”: the percent of DEC205+ DCs bound by FITC-PDI was more than 50%.
